Drawing on publication PMC8437434, this text covers reduction of tau fibril mass (kinetic measurements), reduction of tau fibril mass (unnormalised ThT kinetics) and reduction of tau fibril mass (unnormalised ThT kinetics), DNAJB1:tau 0.5:1 (67%) to 1:1 for 2 substances.

The target in assay [1] is tau^4R (residues 244-372, C322A) (UniProt P10636).
The target is the same in assay [2]. This is another data set of the same source.

Chain of tau^4R (residues 244-372, C322A) (P10636 561-689 C639A): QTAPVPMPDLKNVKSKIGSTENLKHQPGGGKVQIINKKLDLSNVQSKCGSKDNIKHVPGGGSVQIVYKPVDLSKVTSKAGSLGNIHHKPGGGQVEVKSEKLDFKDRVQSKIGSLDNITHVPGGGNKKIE

Turning to “HSPB1 3D GXG variant (S15D, S78D, S82D, I181G, V183G) (from UniProt P04792 1-205) (natural protein)”, the reduction of tau fibril mass (kinetic measurements) at equimolar HSPB1:tau in assay [1] was found to be 45%. In assay [2], this substance returned a reduction of tau fibril mass (unnormalised ThT kinetics) at 1:1 HSPB1:tau of 47%. “full-length DNAJB1 (from UniProt P25685 1-340) (natural protein)” displayed a reduction of tau fibril mass (unnormalised ThT kinetics), DNAJB1:tau 0.5:1 (67%) to 1:1 in assay [2] of 94%.
